From article PMC10662374, “Structures of the interleukin 11 signalling complex reveal gp130 dynamics and the inhibitory mechanism of a cytokine variant” (Nature Communications, 2023) come the findings set out here.

Sequences and labels used below:
T1: IL-11_(Δ10/Mutein)/IL-11Rα_(D1-D3) binary complex (human, UniProt P20809 32-199; Q14626 23-319, W147A | ^58AMSAG^62 to ^58PAIDY^62)
T1 construct: IL-11, human, IL-11Δ10 with W147A and 58-62 AMSAG to PAIDY, as m4; numbers count on: the mature protein; IL-11Rα, human, D1-D3, as m8; m4 with m8; source: formed from the purified proteins; in ITC by titrating the cytokine into IL-11Rα; not shown: His6, N-terminal, cleaved; His8, N-terminal, cleaved
T1 sequence 1: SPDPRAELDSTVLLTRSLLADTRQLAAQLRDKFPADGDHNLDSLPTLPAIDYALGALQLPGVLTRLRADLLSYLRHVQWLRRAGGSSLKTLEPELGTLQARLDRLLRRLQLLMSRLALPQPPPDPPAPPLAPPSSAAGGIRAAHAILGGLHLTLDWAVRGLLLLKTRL
T1 sequence 2: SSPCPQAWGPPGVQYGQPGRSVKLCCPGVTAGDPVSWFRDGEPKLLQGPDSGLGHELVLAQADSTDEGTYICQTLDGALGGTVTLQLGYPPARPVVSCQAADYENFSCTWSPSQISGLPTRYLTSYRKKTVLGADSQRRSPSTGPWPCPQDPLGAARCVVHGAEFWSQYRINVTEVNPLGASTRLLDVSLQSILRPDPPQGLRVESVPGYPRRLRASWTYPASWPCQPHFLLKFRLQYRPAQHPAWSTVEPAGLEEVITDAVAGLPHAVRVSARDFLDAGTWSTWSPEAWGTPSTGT

T2: gp130EC (human, UniProt P40189 23-619, N-linked glycans (N21, N61, N135 seen in the structures))
T2 construct: Secreted with a honeybee-melittin signal peptide; D5-D6 are not in the deposited model 8DPT; also called complete extracellular domains of gp130; D1-D6 domains of gp130; not shown: His8, N-terminal, cleaved
T2 sequence (looked up): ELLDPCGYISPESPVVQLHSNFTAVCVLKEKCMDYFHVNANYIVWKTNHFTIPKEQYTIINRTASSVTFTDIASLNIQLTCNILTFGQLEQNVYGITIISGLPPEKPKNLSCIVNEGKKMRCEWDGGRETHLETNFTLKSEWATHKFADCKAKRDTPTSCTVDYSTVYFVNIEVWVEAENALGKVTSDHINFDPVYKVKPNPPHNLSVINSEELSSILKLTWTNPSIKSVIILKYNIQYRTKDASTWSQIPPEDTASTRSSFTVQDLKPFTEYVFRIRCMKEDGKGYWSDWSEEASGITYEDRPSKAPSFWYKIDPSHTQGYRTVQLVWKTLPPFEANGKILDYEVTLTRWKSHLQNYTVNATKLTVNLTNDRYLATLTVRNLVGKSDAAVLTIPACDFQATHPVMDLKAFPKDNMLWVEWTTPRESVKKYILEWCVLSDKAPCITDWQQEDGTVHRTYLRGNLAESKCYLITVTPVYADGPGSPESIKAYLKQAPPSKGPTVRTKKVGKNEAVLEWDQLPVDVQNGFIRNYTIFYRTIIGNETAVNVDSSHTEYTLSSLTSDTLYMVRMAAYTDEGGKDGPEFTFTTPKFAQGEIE

B1: gp130_(D1-D3) (receptor, human)
chain: GELLDPCGYISPESPVVQLHSNFTAVCVLKEKCMDYFHVNANYIVWKTNHFTIPKEQYTIINRTASSVTFTDIASLNIQLTCNILTFGQLEQNVYGITIISGLPPEKPKNLSCIVNEGKKMRCEWDGGRETHLETNFTLKSEWATHKFADCKAKRDTPTSCTVDYSTVYFVNIEVWVEAENALGKVTSDHINFDPVYKVKPNPPHNLSVINSEELSSILKLTWTNPSIKSVIILKYNIQYRTKDASTWSQIPPEDTASTRSSFTVQDLKPFTEYVFRIRCMKEDGKGYWSDWSEEASGITYEDR
modifications: N-linked glycans (N21, N61, N135 seen in the structures)
notes: glycoprotein 130 (gp130), human, domains D1-D3; Secreted with a honeybee-melittin signal peptide; not shown: His8, N-terminal, cleaved
B2: IL-11Δ10/IL-11Rα_(D1-D3)/gp130EC trimer (complex, human)
chain 1: T1 sequence 1 with P48A, A49M, I50S, D51A, Y52G, A137W
chain 2: T1 sequence 2
chain 3: T2 sequence (looked up)
notes: IL-11, human, IL-11Δ10, as m1; numbers count on: the mature protein; IL-11Rα, human, D1-D3, as m8; gp130, human, D1-D6, as m12; Two such trimers associate to the hexamer; also called one half of the gp130EC complex; source: equimolar mix of the purified proteins; not shown: His6, N-terminal, cleaved; His8, N-terminal, cleaved; copies: 1 + 1 + 1
B3: IL-11Δ10 (ligand, human)
chain: T1 sequence 1 with P48A, A49M, I50S, D51A, Y52G, A137W
notes: numbers count on: the mature protein; also called N-terminally truncated form of IL-11; WT IL-11Δ10; not shown: His6, N-terminal, cleaved
B4: IL-11Δ10/IL-11Rα_(D1-D3) binary complex (complex, human)
chain 1: T1 sequence 1 with P48A, A49M, I50S, D51A, Y52G, A137W
chain 2: T1 sequence 2
notes: IL-11, human, IL-11Δ10, as m1; numbers count on: the mature protein; IL-11Rα, human, D1-D3, as m8; m1 with m8; also called IL-11Rα_(D1-D3)/IL-11Δ10 binary complex; binary IL-11/IL-11Rα complex; source: formed from the purified proteins (IL-11Δ10 from E. coli, IL-11Rα_(D1-D3) from Sf21); in ITC by titrating the cytokine into IL-11Rα; not shown: His6, N-terminal, cleaved; His8, N-terminal, cleaved; …

For data set [1], the target named is IL-11_(Δ10/PAIDY)/IL-11Rα_(D1-D3) binary complex (human) (UniProt P20809). In words: ITC; gp130 in the syringe titrated against the cytokine/IL-11Rα_(D1-D3) complex formed in the cell, 288 K, TBS pH 8.5, 1:1 interaction model, n = 3.
The target in data set [2] is B4. The data set is described as above. The note with it: both partners purified.
The target in data set [3] is T1, IL-11_(Δ10/Mutein)/IL-11Rα_(D1-D3) …. Described as above. As to conditions: both partners purified.
Data set [4] deals with the molecule itself. The data set can be described thus: AUC; sedimentation velocity, 50,000 rpm, 20 °C, c(s) model with floating frictional ratio (SEDFIT).
For data set [5], the target named is T2, gp130EC. The data set can be described thus: cryo-EM structure; IL-11Δ10/IL-11Rα_(D1-D3)/gp130EC complex, 1.5 mg/mL, with 1–2 mM n-dodecyl β-D-maltoside, not size exclusion purified; C2 symmetry, 3.8 Å. As to conditions: both partners purified.
Data set [6] concerns the target T2, gp130EC. In words: ITC; gp130 in the syringe titrated against the cytokine/IL-11Rα_(D1-D3) complex formed in the cell, 288 K, TBS pH 8.5, 1:1 interaction model, n = 3. The note with it: both partners purified. (In general: Isothermal titration calorimetry measures the heat released or taken up as one component is titrated into another.)

Positions count from the first letter of the chain named.

For B1, the figures for the Kd in data set [1], in data set [2] and in data set [3] were 20 nM, 3 nM and 55 nM, respectively. The molecule further returned a dH in data set [2] of -8.13 kcal/mol.

As to B2, the binding result in data set [4] is “binds”.

Take B3: the binding result with gp130EC [5] is recorded as “binds”.

As for B4, in the data set with gp130EC [6], the Kd came out at 4 nM.

The term Kd denotes the free concentration of one partner at which half of the binding sites on the other are occupied at equilibrium, for simple one-to-one binding. A high value points to weaker binding.
